Our source for the EC50 and shift in Tm of ASRGL1 with 1 μM TDP-43 values is paper PMC11099023.

For orientation: EC50 means the midpoint of the concentration-response curve.

The experiment has as its target Asparaginase-like 1 protein (ASRGL1), recombinant full-length (UniProt Q7L266). As to the kind of experiment: differential scanning fluorimetry (protein thermal shift assay); recombinant ASRGL1 with increasing concentrations of TDP-43 in PBS (10 mM phosphate, 150 mM NaCl, pH 7.4), 30 min at 25 °C, ramp 25 to 99 °C; Tm plotted against TDP-43 concentration, inflection point of a sigmoidal fit …. In general terms: DSF heats the sample and reads unfolding from a dye or from intrinsic fluorescence.
Chain of UniProt Q7L266 (Q7L266 whole entry): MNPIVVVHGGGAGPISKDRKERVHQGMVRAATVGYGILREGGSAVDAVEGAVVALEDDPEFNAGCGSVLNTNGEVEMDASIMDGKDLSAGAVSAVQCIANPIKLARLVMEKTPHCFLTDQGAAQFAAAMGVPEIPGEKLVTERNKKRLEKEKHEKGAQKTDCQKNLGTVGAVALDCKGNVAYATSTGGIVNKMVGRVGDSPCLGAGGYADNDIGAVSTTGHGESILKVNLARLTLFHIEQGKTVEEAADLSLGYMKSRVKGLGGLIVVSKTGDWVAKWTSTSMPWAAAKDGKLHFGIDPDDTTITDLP

As for “TAR DNA-binding protein 43 (TDP-43), native form, recombinant full-length (from UniProt Q13148 1-414) (natural protein)”, the EC50 was found to be 36.1 nM and the shift in Tm of ASRGL1 with 1 μM TDP-43 worked out at 10 °C.
